Columns and labels:
[1] = molecular target: T1, human OX40 on cells (human, UniProt P43489 29-277); experiment: cell-based or functional assay
T1 sequence: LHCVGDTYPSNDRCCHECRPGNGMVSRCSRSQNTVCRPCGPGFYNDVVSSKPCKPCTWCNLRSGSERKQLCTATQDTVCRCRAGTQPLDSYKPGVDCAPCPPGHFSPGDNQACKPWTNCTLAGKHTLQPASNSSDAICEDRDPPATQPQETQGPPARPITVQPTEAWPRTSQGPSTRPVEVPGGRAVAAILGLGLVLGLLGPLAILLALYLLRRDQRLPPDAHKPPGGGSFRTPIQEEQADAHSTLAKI

[2] = molecular target: T1, human OX40 on cells; experiment: FACS, activated human T cells; mean ± SD, n=3
Experimental: (§1) Cells were activated for several days before the binding assay in order to induce OX40 expression. Briefly, PBMCs were cultured for three or four days with magnetic beads coated with anti-human CD3 plus anti-human CD28, in the presence of recombinant human IL-2. On the day of the assay, the beads were removed and the cells stained with a titration of each anti-OX40 antibody. Bound antibodies were detected with a fluorescently conjugated anti-human IgG polyclonal secondary antibody, and the cells were co-stained for CD4 and CD25 to detect activated CD4 T cells. The fluorescence intensity of the staining was measured using a FACSCanto II flow cytometer (Becton Dickinson). The geometric mean fluorescence intensity (GMFI) or median fluorescence intensity (MedFI) of anti-OX40 antibody staining was calculated for the CD4+CD25+ population (FACSDiva software). EC₅₀s for antibody binding were calculated using GraphPad Prism software.

[3] = molecular target: T1, human OX40 on cells; experiment: FACS, blocking of OX40L-His (0.2 µg/mL) binding to hOX40-293 cells
Experimental: Briefly, 293 cells stably transfected with human OX40 were first pre-incubated with varying concentrations of anti-OX40 antibodies. […] The fluorescence intensity of the staining was measured using a FACSCanto II flow cytometer (Becton Dickinson).

[4] = molecular target: T1, human OX40 on cells; experiment: FACS competition on hOX40-293 cells against biotin-OX40.5 (spike biotOX.5 @ 0.4 ug/mL, streptavidin-APC); partial inhibition, FL4-MFI falls from about 8700 to about 6400; the table gives no unit, axis in nM
Experimental: (§2) This experiment was performed to test the cross-blocking properties of various anti-OX40 antibodies to assess binding specificities. […] Cells were washed and if necessary further incubated in the presence of streptavidin-APC conjugate under the same conditions. After the final wash, cells were analyzed on a FACSCanto flow cytometer (BD Bioscience, San Jose, Calif.). Mean fluorescence intensity (MFI) signal was proportional to bound conjugated antibody.

[5] = molecular target: T1, human OX40 on cells; experiment: FACS competition on HT1080-hOX40 cells against APC-OX40.1 (FL2 MFI); the table gives no unit, axis 'Ab conc nM'
Experimental: as §2

[6] = molecular target: T2, his-tagged soluble human OX40 (huOX40-6xhis) (human, UniProt P43489 29-214); experiment: SPR, mAb captured on anti-human CH1, OX40-6XHIS analyte, 1:1 fit
T2 construct: made in-house; also called Human-OX40-6XHIS; hOX40; not shown: hexahistidine tag
T2 sequence: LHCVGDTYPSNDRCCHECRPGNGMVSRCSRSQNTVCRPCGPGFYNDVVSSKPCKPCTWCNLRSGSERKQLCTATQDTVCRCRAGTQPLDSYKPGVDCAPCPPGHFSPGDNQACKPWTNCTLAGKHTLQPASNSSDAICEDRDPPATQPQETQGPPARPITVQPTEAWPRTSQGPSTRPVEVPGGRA
Experimental: The affinity of several OX40 antibodies for soluble human OX40 was tested by SPR analysis. […] Human-OX40-6XHIS antigen in either a single concentration of 400 nM or a 1:2 serial dilution from 400 nM was used. Experiments were carried out on BIACORE® T200 or BIACORE® 3000 SPR instruments. Data was fit to a 1:1 model.

[7] = molecular target: T3, cynomolgus OX40 on cells (cynomolgus, UniProt P43489 29-277 (human entry)); experiment: FACS, activated cyno T cells; mean ± SD, n=4
T3 construct: also called cynoOX40-CHO
T3 chain: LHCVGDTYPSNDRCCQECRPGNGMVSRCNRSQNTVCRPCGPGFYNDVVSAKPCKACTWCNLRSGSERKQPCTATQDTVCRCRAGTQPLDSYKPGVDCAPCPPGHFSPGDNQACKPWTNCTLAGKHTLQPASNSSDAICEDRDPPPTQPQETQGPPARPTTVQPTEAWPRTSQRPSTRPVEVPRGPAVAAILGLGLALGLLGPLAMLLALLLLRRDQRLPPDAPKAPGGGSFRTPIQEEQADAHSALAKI
Experimental: Briefly, cells were activated for several days before the binding assay in order to induce OX40 expression. Total leukocytes were isolated from cynomolgus macaque peripheral blood by lysis of red blood cells using an ammonium chloride buffer. The leukocytes were then cultured for four to five days with in flasks pre-coated with anti-human CD3 plus anti-human CD28 antibodies that cross-react with cynomolgus macaque, in the presence of recombinant human IL-2, in order to expand and activate T cells. On the day of the assay, the cells were harvested and stained with a titration of each anti-OX40 antibody. Bound antibodies were detected with a fluorescently conjugated anti-human IgG polyclonal secondary antibody, and the cells were co-stained for CD4 and CD25 to detect activated CD4 T cells. The fluorescence intensity of the staining was measured using a FACSCanto II flow cytometer (Becton Dickinson). The geometric mean fluorescence intensity (GMFI) or median fluorescence intensity (MedFI) of anti-OX40 antibody staining was calculated for the CD4+CD25+ population (FACSDiva software). Dose-response curves were generated and EC50s for antibody binding were calculated using GraphPad Prism software.

[8] = molecular target: T1, human OX40 on cells; experiment: cell-based or functional assay; remark: listed apart in the source
[9] = molecular target: T1, human OX40 on cells; experiment: FACS, activated human T cells; mean ± SD, n=2
Experimental: as §1

[10] = molecular target: T1, human OX40 on cells; experiment: FACS competition on HT1080-hOX40 cells against APC-OX40.1 (FL2 MFI); the table gives no unit, axis 'Ab conc nM'; NOTE: the curve of this antibody is flat at about 18000 (no inhibition), the printed fit value has no meaning as a potency
Experimental: as §2

B1: 3F4 (antibody, V domains shown)
VH: QVQLVQSGAEVKKPGASVKVSCKASGNTFTSYDVNWVRQATGQGLEWMGWMNPNSGNTGYAPKFQGRVTMTRNTSISTAYMELSSLRSEDTAVYYCARIYSSSYNWFDPWGQGTLVTVSS
VL: EIVLTQSPATLSLSPGERATLSCRASQSVSSYLAWYQQKPGQAPRLLIYDASNRATGIPARFSGSGSGTDFTLTISSLEPEDFAVYYCQQRSNWPLTFGGGTKVEIK
notes: also called 3F4.G11.D2; 3F4.G11
Proliferation EC50, CD4 T cells + CHO-CD3-CD32A [1]: 0.016 nM | EC50 [2]: 0.19 nM | EC50 [3]: 0.54 nM | EC50 [4]: 3.71 nM | IC50 [5]: 0.706 nM | Kd [6]: 7.13 nM | koff [6]: 0.000379 s⁻¹ | kon [6]: 53100 M⁻¹ s⁻¹ | EC50 [7]: 0.37 nM

B2: OX40.18 (antibody, human IgG1, kappa, V domains shown)
VH: QVQLVQSGAEVKKPGASVKVSCKASGYTFTSYDVNWVRQATGQGLEWMGWMNPNSGNTGYAPKFQGRVTMTRDTSISTAYMELSSLRSEDTAVYYCARIYSSSYNWFDYWGQGTLVTVSS
VL: EIVLTQSPATLSLSPGERATLSCRASQSVSSYLAWYQQKPGQAPRLLIYDASNRATGIPARFSGSGSGTDFTLTISSLEPEDFAVYYCQQRSNWPLTFGGGTKVEIKR
notes: g1f
IFNγ EC50, CD4 T cells + CHO-CD3-CD32A [1]: 0.49 nM | Proliferation EC50, CD4 T cells + CHO-CD3-CD32A [1]: 0.23 nM | IL-2 EC50, SEB PBMC, donor BMS-001 [8]: ~84.8 nM | IL-2 EC50, SEB PBMC, donor BMS-004 [8]: 2.43 nM | IL-2 EC50, SEB PBMC, donor BMS-009 [8]: 3.21 nM | IL-2 EC50, SEB PBMC, donor BMS-012 [8]: ~1.67 nM | IL-2 EC50, SEB PBMC, donor BMS-015 [8]: > 100 nM | IL-2 EC50, SEB PBMC, donor BMS-016 [8]: > 100 nM | IL-2 EC50, SEB PBMC, donor WB10024 [8]: ~3.17 nM | IL-2 EC50, SEB PBMC, donor WB10025 [8]: ~1.14 nM | IL-2 EC50, SEB PBMC, donor WB10026 [8]: 3.02 nM | IL-2 EC50, SEB PBMC, donor WB10027 [8]: ~3.27 nM | IL-2 EC50, SEB PBMC, donor WB10137 [8]: > 100 nM | IL-2 Mean EC50, SEB PBMC, all donors [8]: 2.89 nM | EC50 [9]: 3.15 nM

B3: 6E1 (antibody, V domains shown)
VH: QVQLVESGGGVVQPGRSLRLSCAASGFTFSSFAMHWVRQAPGKGLEWVTVISYDGSIKYYTDSVKGRFTFSRDNSKNTLYLQMNSLRAEDTAVYYCTRDGNYGSARYFQHWGQGTLVTVSS
VL: EIVLTQSPATLSLSPGERATLSCRASQSVSSYLAWYQQKPGQAPRLLIYDASNRATGIPARFSGSGSGTDFTLTISSLEPEDFAVYYCQQRSNWPYTFGQGTKLEIK
notes: also called 6E1.A12.A2; 6E1.A12
Proliferation EC50, CD4 T cells + CHO-CD3-CD32A [1]: 0.014 nM | IC50 [10]: ~0.00249 nM | EC50 [9]: 0.97 nM | Kd [6]: 11 nM | koff [6]: 0.00141 s⁻¹ | kon [6]: 128000 M⁻¹ s⁻¹ | EC50 [7]: 0.77 nM

— US20200399385A1 (Bristol-Myers Squibb, published 2020)
